# Laboratory results: US20060199761A1, “Insulin resistance improving agent” (Japan Science And Technology Agency, priority 2002, published 2006)
# B1: Ad: recombinant full-length mouse adiponectin, histidine-tagged fusion protein expressed in bacteria (protein, UniProt Q15848 19-244, looked up)
# Adiponectin: ETTTQGPGVLLPLPKGACTGWMAGIPGHPGHNGAPGRDGRDGTPGEKGEKGDPGLIGPKGDIGETGVPGAEGPRGFPGIQGRKGEPGEGAYVYRSAFSVGLETYVTIPNMPIRFTKIFYNQQNHYDGSTGKFHCNIPGLYYFAYHITVYMKDVKVSLFKKDKAMLFTYDQYQENNVDQASGSVLLHLEVGDQVWLQVYGEGERNGLYADNDNDSTFTGFLLYHDTN
# B2: gAd: C-terminal globular domain of adiponectin, recombinant histidine-tagged fusion protein (protein, listed as Homo sapiens)
# chain: AFSVGLETYVTIPNMPIRFTKIFYNQQNHYDGSTGKFHCNIPGLYYFAYHITVYMKDVKVSLFKKDKAMLFTYDQYQENNVDQASGSVLLHLEVGDQVWLQVYGEGERNGLYADNDNDSTFTGFLL
# modifications: CDS (1)..(735)
# Columns and labels:
# lipoatrophic mice [1] = assay: Lipoatrophic mice (PPAR-γ+/− mice treated with HX531) with or without adiponectin, gAd or leptin; type: in vivo, mouse; settings: for insulin resistance (FIG. 8): mice without adipose tissue, administration at a physiological concentration; for Liver TG content / Serum FFA / Serum TG / Skeletal muscle TG content: HF diet; for hyperglycemia and hyperinsulinemia (insulin resistance index, FIG. 8): lipoatrophic mice, continuous systemic infusion
# Experimental: (§1) The measurements of [^14C] CO2 production from [1-^14C] palmitic acid were performed using liver and muscle slices as described (Diabetes 47, 1841-1847 (1998)). Liver and muscle homogenates were prepared, and tissue triglyceride content was determined with an extract solution (CHCl3:CH3OH=2:1). The remainder of the liver and muscle was immediately frozen in liquid nitrogen and stored at −80° C. until measurement of the enzymatic activity of ACO. ACO activity in the light mitochondrial fraction of liver and muscle was measured by assay that was based on the H2O2 dependent oxidation of leuco-dichlorofluorescein (Diabetes 47, 1841-1847 (1998)).
# Unless otherwise described herein, administration was performed through continuous systemic infusion (pump) in combination with a high-fat (HF) diet for the final twelve days of the six-week HX531 treatment.
# FIGS. 9 and 10 show mRNAs of fatty-acid translocase (FAT)/CD36, ACO, UCP2, and PPAR-α in mouse skeletal muscle and in liver, respectively. […] HX531 was administered as a 0.1% food admixture. Mice were stimulated with or without 1 U/g body weight of insulin for two minutes. Lysates were subjected to immunoprecipitation (IP) and immunoblotting through use of the antibodies described in Mol. Cell. Biol. 16, […] (1996).
# lipoatrophic mice [2] = assay: as above; type: in vivo, mouse; settings: HX531 for four weeks
# db/db mice [3] = assay: Rosiglitazone treatment of db/db mice on high-fat diet (adiponectin expression, glucose tolerance test)
# KKA^y mice [4] = assay: Adiponectin administration to KKAy mice on high-fat diet; type: in vivo, mouse; settings: for ACO activity, liver / ACO activity, skeletal muscle / Fatty acid oxidation [14C] palmitate→CO2, liver / Fatty acid oxidation [14C] palmitate→CO2, skeletal muscle / Rectal temperature / Serum FFA / Serum TG / TG content, liver / TG content, skeletal muscle: high fat diet, two weeks
# Experimental: as §1
# The mice were fed an HC or HF diet.
# The following values were determined through use of KKA^y mice: acyl-CoA oxidase (ACO) activity and fatty acid oxidation in the skeletal muscle and in the liver, tissue triglyceride content in the skeletal muscle and in the liver, and serum free fatty acid level and serum triglyceride level. Mice were fed with high fat diet, and full-length adiponectin (Ad) or adiponectin globular domain (gAd) was administered to each mice at a dose shown in Table 2 for two weeks.
# db/db mice [5] = test system: db/db mice
# Experimental: (§2) Adiponectin or leptin was administered to mice through intraperitoneal injection or continuous systemic infusion as described (Nature 401, 73-76 (1999)). An Alzet micro-osmotic pump (model 1002, Alza) was inserted subcutaneously in the back of each mouse. A daily dose (shown in Figures) of recombinant leptin (Sigma) or adiponectin was dissolved in a total volume of 0.1 mL of PBS, and the solution was delivered to mice through the pump for twelve days.
# (§3) The areas of glucose and insulin curves were calculated by multiplying the cumulative mean height of the glucose values (1 mg/ml=1 cm) and insulin values (1 ng/ml=1 cm), respectively, by time (60 min=1 cm) (Am. J. Physiol. 240, E482-488 (1981)).
# (§4) The mice were fed an HC or HF diet. In addition, Ad or gAd was administered, or none of these was administered, to the mice at a predetermined dose (μg/day).
# PPAR-γ+/− mice = assay: Adiponectin infusion in PPAR-γ+/− mice on high-fat diet without HX531 (tissue TG, serum FFA/TG); type: in vivo, mouse; settings: HF diet, no HX531, Ad 50 μg/day continuous infusion 12 days
# Experimental: as §1
# While PPAR-γ^+/− mice were treated with HX531 for six weeks (+) or untreated (−), recombinant full-length adiponectin (Ad), gAd, or leptin (Lep) was administered to each PPAR-γ^+/− mouse at a predetermined dose (μg/day). Administration was performed through continuous systemic infusion in combination with the high-fat (HF) diet for the final twelve days of the six-week HX531 treatment (six weeks).
# KKA^y mice [6] = assay: Adiponectin administration to KKAy mice on high-fat diet; type: in vivo, mouse; settings: adiponectin-administered KKAy mice
# KK mice = assay: Adiponectin administration to KK mice (serum leptin); type: in vivo, mouse
# Experimental: as §2
# [7] = PPAR-γ+/− mice, HX531 alone for 6 weeks
# [8] = db/db mice, adiponectin replenishment
# [9] = HX531 6 weeks + Ad 50 μg/day continuous infusion final 12 days
# [10] = normal C57 mice, high-fat diet, two weeks
# [11] = HX531 6 weeks + gAd 2.5 μg/day continuous infusion final 12 days
# [12] = gAd at a low concentration, mRNA (FIG. 9)
# Experimental for C57 mice: as §2, §3, §4
molecule,measurement,setting,value
leptin: recombinant leptin (Sigma),insulin resistance (FIG. 8),lipoatrophic mice [1],"alleviate their insulin resistance, albeit partially"
"CN1c2ccc([N+](=O)[O-])cc2N=C(c2ccc(C(=O)O)cc2)c2cc3c(cc21)C(C)(C)CCC3(C)C [HX531, reference compound]",visible WAT,lipoatrophic mice [2],disappearance of visible WAT
same,Liver TG content,lipoatrophic mice [1]; [7],19.36 ± 1.23 mg/g tissue
same,Serum FFA,lipoatrophic mice [1]; [7],1.48 ± 0.25 mEq/L
same,Serum TG,lipoatrophic mice [1]; [7],201.4 ± 25.3 mg/dL
same,Skeletal muscle TG content,lipoatrophic mice [1]; [7],15.96 ± 1.47 mg/g tissue
same,lowering of expression of lipoprotein lipase (LPL) in WAT,"lipoatrophic mice [1]; PPAR-γ+/− mice, HX531 for three weeks",≥ 90%
CN(CCOc1ccc(CC2SC(=O)NC2=O)cc1)c1ccccn1 (stereo not drawn) [Rosiglitazone],adipose tissue mass,db/db mice [3],2.84 ± 0.16 g
same,body weight,db/db mice [3],47.9 ± 1.0 g
B1,"ACO activity, liver",KKA^y mice [4]; Ad 50 μg/day,3.04 ± 0.85 nmol/mg/min
same,"ACO activity, skeletal muscle",KKA^y mice [4]; Ad 50 μg/day,0.37 ± 0.04 nmol/mg/min
same,"Fatty acid oxidation [14C] palmitate→CO2, liver",KKA^y mice [4]; Ad 50 μg/day,2.92 ± 0.29 nmol/g/h
same,"Fatty acid oxidation [14C] palmitate→CO2, skeletal muscle",KKA^y mice [4]; Ad 50 μg/day,3.95 ± 0.58 nmol/g/h
same,Rectal temperature,KKA^y mice [4]; Ad 50 μg/day,37.3 ± 0.2 °C
same,Serum FFA,KKA^y mice [4]; Ad 50 μg/day,0.67 ± 0.09 mEq/L
same,Serum TG,KKA^y mice [4]; Ad 50 μg/day,101.3 ± 19.7 mg/dL
same,"TG content, liver",KKA^y mice [4]; Ad 50 μg/day,16.15 ± 0.83 mg/g tissue
same,"TG content, skeletal muscle",KKA^y mice [4]; Ad 50 μg/day,8.75 ± 0.58 mg/g tissue
same,"hyperinsulinemia (GTT, FIG. 14)",db/db mice [5]; [8],significantly ameliorated
same,"leptin receptor deficiency-induced hyperglycemia (GTT, FIG. 13)",db/db mice [5]; [8],significantly ameliorated
same,serum adiponectin levels,"db/db mice [5]; mouse, in vivo",partially restored
same,Liver TG content,PPAR-γ+/− mice,6.45 ± 0.26 mg/g tissue
same,Serum FFA,PPAR-γ+/− mice,0.35 ± 0.02 mEq/L
same,Serum TG,PPAR-γ+/− mice,60.5 ± 6.0 mg/dL
same,Skeletal muscle TG content,PPAR-γ+/− mice,5.47 ± 0.32 mg/g tissue
same,expression of enzymes involved in β-oxidation and UCP2 in skeletal muscle,KKA^y mice [6],increased
same,serum adiponectin levels,"C57 mice; mouse, in vivo",partially restored
same,expression of leptin in WAT,C57 mice; wild-type mice,did not alter
same,hyperglycemia and hyperinsulinemia induced by high-fat diet (GTT),"C57 mice; wild-type mice on high-fat diet, continuous systemic infusion of low doses",significantly ameliorated
same,Liver TG content,lipoatrophic mice [1]; [9],16.19 ± 0.72 mg/g tissue
same,Serum FFA,lipoatrophic mice [1]; [9],0.61 ± 0.13 mEq/L
same,Serum TG,lipoatrophic mice [1]; [9],106.6 ± 18.1 mg/dL
same,Skeletal muscle TG content,lipoatrophic mice [1]; [9],7.74 ± 0.65 mg/g tissue
same,insulin-induced tyrosine phosphorylation of insulin receptor and insulin-receptor substrate 1 and insulin-stimulated phosphorylation of Akt kinase in skeletal muscle,lipoatrophic mice [1]; adiponectin-administered lipoatrophic mice (FIG. 11),increase
same,"hyperglycemia and hyperinsulinemia (insulin resistance index, FIG. 8)",lipoatrophic mice [1],significantly ameliorated
same,insulin resistance (FIG. 8),lipoatrophic mice [1],not sufficient to completely ameliorate insulin resistance
B2,serum leptin levels,KKA^y mice [4],57.9 ± 5.7 ng/mL
same,"ACO activity, liver",KKA^y mice [4]; gAd 2.5 μg/day,2.89 ± 0.35 nmol/mg/min
same,"ACO activity, skeletal muscle",KKA^y mice [4]; gAd 2.5 μg/day,0.42 ± 0.04 nmol/mg/min
same,"Fatty acid oxidation [14C] palmitate→CO2, liver",KKA^y mice [4]; gAd 2.5 μg/day,2.89 ± 0.21 nmol/g/h
same,"Fatty acid oxidation [14C] palmitate→CO2, skeletal muscle",KKA^y mice [4]; gAd 2.5 μg/day,4.06 ± 0.44 nmol/g/h
same,Rectal temperature,KKA^y mice [4]; gAd 2.5 μg/day,37.7 ± 0.1 °C
same,Serum FFA,KKA^y mice [4]; gAd 2.5 μg/day,0.39 ± 0.04 mEq/L
same,Serum TG,KKA^y mice [4]; gAd 2.5 μg/day,96.4 ± 18.3 mg/dL
same,"TG content, liver",KKA^y mice [4]; gAd 2.5 μg/day,16.04 ± 0.91 mg/g tissue
same,"TG content, skeletal muscle",KKA^y mice [4]; gAd 2.5 μg/day,8.06 ± 0.61 mg/g tissue
same,serum leptin levels,db/db mice [5]; db/db mice,145.2 ± 14.7 ng/mL
same,serum leptin levels,KK mice,13.4 ± 2.7 ng/mL
same,Food intake,C57 mice; C57 mice on high-fat diet,6.28 ± 0.51 g/day
same,WAT weight,C57 mice; [10],0.48 ± 0.04 g
same,body weight,C57 mice; [10],20.6 ± 2.1 g
same,serum leptin levels,C57 mice; wild-type mice,10.4 ± 2.6 ng/mL
same,Liver TG content,lipoatrophic mice [1]; [11],13.81 ± 0.91 mg/g tissue
same,Serum FFA,lipoatrophic mice [1]; [11],0.43 ± 0.14 mEq/L
same,Serum TG,lipoatrophic mice [1]; [11],100.3 ± 17.5 mg/dL
same,Skeletal muscle TG content,lipoatrophic mice [1]; [11],3.88 ± 1.74 mg/g tissue
same,"expression of CD36, acyl-CoA oxidase (ACO) and uncoupling protein (UCP) 2 in skeletal muscle",lipoatrophic mice [1]; [12],increased
same,expression of PPAR-α in skeletal muscle,lipoatrophic mice [1]; [12],increased
same,expression of CD36 in the liver,"lipoatrophic mice [1]; gAd at a low concentration, mRNA (FIG. 10)",decreased
same,"hyperglycemia and hyperinsulinemia (insulin resistance index, FIG. 8)",lipoatrophic mice [1],much more potently than full-length adiponectin
